# Assay results published in IntAct's records for PubMed 29892012.
# B1: Ribosome assembly protein METTL17, mitochondrial (Homo sapiens), Q9H7H0 (parent)
# chain: MAAALKCLLTLGRWCPGLGVAPQARALAALVPGVTQVDNKSGFLQKRPHRQHPGILKLPHVRLPQALANGAQLLLLGSAGPTMENQVQTLTSYLWSRHLPVEPEELQRRARHLEKKFLENPDLSQTEEKLRGAVLHALRKTTYHWQELSYTEGLSLVYMAARLDGGFAAVSRAFHEIRARNPAFQPQTLMDFGSGTGSVTWAAHSIWGQSLREYMCVDRSAAMLVLAEKLLKGGSESGEPYIPGVFFRQFLPVSPKVQFDVVVSAFSLSELPSKADRTEVVQTLWRKTGHFLVLVENGTKAGHSLLMDARDLVLKGKEKSPLDPRPGFVFAPCPHELPCPQLTNLACSFSQAYHPIPFSWNKKPKEEKFSMVILARGSPEEAHRWPRITQPVLKRPRHVHCHLCCPDGHMQHAVLTARRHGRDLYRCARVSSWGDLLPVLTPSAFPPSTAQDPSES
# partner: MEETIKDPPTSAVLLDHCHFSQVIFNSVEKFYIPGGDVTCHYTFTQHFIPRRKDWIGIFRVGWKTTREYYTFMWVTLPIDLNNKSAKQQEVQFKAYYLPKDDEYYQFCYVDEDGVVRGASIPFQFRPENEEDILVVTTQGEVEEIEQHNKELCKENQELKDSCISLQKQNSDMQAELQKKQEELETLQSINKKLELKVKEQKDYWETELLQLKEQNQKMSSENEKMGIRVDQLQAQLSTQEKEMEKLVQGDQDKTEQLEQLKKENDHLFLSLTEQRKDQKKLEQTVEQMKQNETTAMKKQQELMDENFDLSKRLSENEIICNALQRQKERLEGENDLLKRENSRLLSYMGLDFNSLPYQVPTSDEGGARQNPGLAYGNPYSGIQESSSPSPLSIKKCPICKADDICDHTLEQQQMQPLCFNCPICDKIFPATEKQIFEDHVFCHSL
# B2: UBX domain-containing protein 6 (Homo sapiens), Q9BZV1 (parent)
# chain: MKKFFQEFKADIKFKSAGPGQKLKESVGEKAHKEKPNQPAPRPPRQGPTNEAQMAAAAALARLEQKQSRAWGPTSQDTIRNQVRKELQAEATVSGSPEAPGTNVVSEPREEGSAHLAVPGVYFTCPLTGATLRKDQRDACIKEAILLHFSTDPVAASIMKIYTFNKDQDRVKLGVDTIAKYLDNIHLHPEEEKYRKIKLQNKVFQERINCLEGTHEFFEAIGFQKVLLPAQDQEDPEEFYVLSETTLAQPQSLERHKEQLLAAEPVRAKLDRQRRVFQPSPLASQFELPGDFFNLTAEEIKREQRLRSEAVERLSVLRTKAMREKEEQRGLRKYNYTLLRVRLPDGCLLQGTFYARERLGAVYGFVREALQSDWLPFELLASGGQKLSEDENLALNECGLVPSALLTFSWDMAVLEDIKAAGAEPDSILKPELLSAIEKLL
# partner: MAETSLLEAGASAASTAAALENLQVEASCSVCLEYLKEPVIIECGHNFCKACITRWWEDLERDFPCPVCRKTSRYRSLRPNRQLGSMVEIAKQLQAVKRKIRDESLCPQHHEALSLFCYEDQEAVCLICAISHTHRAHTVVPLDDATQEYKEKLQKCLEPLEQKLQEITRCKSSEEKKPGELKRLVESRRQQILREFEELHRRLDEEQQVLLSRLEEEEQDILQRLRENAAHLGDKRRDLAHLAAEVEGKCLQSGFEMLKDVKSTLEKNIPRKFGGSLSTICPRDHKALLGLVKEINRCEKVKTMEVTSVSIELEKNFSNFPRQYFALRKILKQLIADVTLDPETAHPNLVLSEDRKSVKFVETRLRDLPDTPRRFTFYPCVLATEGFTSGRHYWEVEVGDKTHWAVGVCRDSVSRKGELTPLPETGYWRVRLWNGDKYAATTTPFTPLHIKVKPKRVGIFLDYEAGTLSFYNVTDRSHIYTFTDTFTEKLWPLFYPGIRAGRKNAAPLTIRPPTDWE
# B3: Genetic suppressor element 1 (Homo sapiens), Q14687 (parent)
# chain: MKGMSHEPKSPSLGMLSTATRTTATVNPLTPSPLNGALVPSGSPATSSALSAQAAPSSSFAAALRKLAKQAEEPRGSSLSSESSPVSSPATNHSSPASTPKRVPMGPIIVPPGGHSVPSTPPVVTIAPTKTVNGVWRSESRQDAGSRSSSGGRERLIVEPPLPQEKAGGPAIPSHLLSTPYPFGLSPSSVVQDSRFPPLNLQRPVHHVVPPSTVTEDYLRSFRPYHTTDDLRMSSLPPLGLDPATAAAYYHPSYLAPHPFPHPAFRMDDSYCLSALRSPFYPIPTPGSLPPLHPSAMHLHLSGVRYPPELSHSSLAALHSERMSGLSAERLQMDEELRREREREREREREREADREREKEREREREKEREQEKEREREKERERELERQREQRAREKELLAAKALEPSFLPVAELHGLRGHATEERGKPSEQLTPTRAEKLKDAGLQAPKPVQHPLHPVPTPHHTVPSLISNHGIFSLPSSSAATALLIQRTNEEEKWLARQRRLRQEKEDRQSQVSEFRQQVLEQHLDMGRPPVPAEAEHRPESTTRPGPNRHEPGGRDPPQHFGGPPPLISPKPQLHAAPTALWNPVSLMDNTLETRRAESHSLHSHPAAFEPSRQAAVPLVKVERVFCPEKAEEGPRKREPAPLDKYQPPPPPPREGGSLEHQPFLPGPGPFLAELEKSTQTILGQQRASLPQAATFGELSGPLKPGSPYRPPVPRAPDPAYIYDEFLQQRRRLVSKLDLEERRRREAQEKGYYYDLDDSYDESDEEEVRAHLRCVAEQPPLKLDTSSEKLEFLQLFGLTTQQQKEELVAQKRRKRRRMLRERSPSPPTIQSKRQTPSPRLALSTRYSPDEMNNSPNFEEKKKFLTIFNLTHISAEKRKDKERLVEMLRAMKQKALSAAVADSLTNSPRDSPAVSLSEPATQQASLDVEKPVGVAASLSDIPKAAEPGKLEQVRPQELSRVQELAPASGEKARLSEAPGGKKSLSMLHYIRGAAPKDIPVPLSHSTNGKSKPWEPFVAEEFAHQFHESVLQSTQKALQKHKGSVAVLSAEQNHKVDTSVHYNIPELQSSSRAPPPQHNGQQEPPTARKGPPTQELDRDSEEEEEEDDEDGEDEEEVPKRKWQGIEAVFEAYQEHIEEQNLERQVLQTQCRRLEARHYSLSLTAEQLSHSVAELRSQKQKMVSERERLQAELDHLRKCLALPAMHWPRGYLKGYPR
# partner: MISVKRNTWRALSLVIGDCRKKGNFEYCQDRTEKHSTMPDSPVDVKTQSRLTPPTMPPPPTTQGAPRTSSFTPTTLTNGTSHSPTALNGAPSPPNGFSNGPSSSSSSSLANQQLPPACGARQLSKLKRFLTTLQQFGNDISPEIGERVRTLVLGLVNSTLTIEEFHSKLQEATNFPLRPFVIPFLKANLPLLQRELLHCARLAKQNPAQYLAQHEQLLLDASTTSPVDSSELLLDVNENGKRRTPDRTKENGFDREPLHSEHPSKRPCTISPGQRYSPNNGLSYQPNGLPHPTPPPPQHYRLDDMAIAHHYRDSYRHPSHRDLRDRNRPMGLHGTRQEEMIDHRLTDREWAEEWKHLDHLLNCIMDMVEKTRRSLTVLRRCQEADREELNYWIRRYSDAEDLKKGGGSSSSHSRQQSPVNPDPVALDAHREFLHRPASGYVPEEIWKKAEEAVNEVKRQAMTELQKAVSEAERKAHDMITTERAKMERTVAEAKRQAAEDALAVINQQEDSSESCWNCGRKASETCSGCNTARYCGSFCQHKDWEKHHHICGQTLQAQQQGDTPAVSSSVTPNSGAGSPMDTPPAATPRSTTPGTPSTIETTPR
# B4: Keratin, type I cuticular Ha8 (Homo sapiens), O76015 (parent)
# chain: MTSSYSSSSCPLGCTMAPGARNVSVSPIDIGCQPGAEANIAPMCLLANVAHANRVRVGSTPLGRPSLCLPPTCHTACPLPGTCHIPGNIGICGAYGENTLNGHEKETMQFLNDRLANYLEKVRQLEQENAELEATLLERSKCHESTVCPDYQSYFHTIEELQQKILCSKAENARLIVQIDNAKLAADDFRIKLESERSLRQLVEADKCGTQKLLDDATLAKADLEAQQESLKEEQLSLKSNHEQEVKILRSQLGEKLRIELDIEPTIDLNRVLGEMRAQYEAMLETNRQDVEQWFQAQSEGISLQDMSCSEELQCCQSEILELRCTVNALEVERQAQHTLKDCLQNSLCEAEDRFGTELAQMQSLISNVEEQLSEIRADLERQNQEYQVLLDVKTRLENEIATYRNLLESEDCKLPCNPCSTSPSCVTAPCAPRPSCGPCTTCGPTCGASTTGSRF
# partner: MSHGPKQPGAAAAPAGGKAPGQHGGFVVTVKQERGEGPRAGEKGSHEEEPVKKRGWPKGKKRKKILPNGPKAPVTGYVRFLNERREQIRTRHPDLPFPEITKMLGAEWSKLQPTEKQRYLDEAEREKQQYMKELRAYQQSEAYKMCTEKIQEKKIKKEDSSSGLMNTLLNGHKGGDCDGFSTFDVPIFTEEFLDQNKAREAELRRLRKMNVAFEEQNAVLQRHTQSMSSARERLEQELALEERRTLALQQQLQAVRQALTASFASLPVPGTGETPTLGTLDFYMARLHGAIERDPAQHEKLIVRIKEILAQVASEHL
# Variants of: B1
# Conditions: with caco2_human CALCOCO2, Q13137
row,effect of a mutation on the interaction,Variant
1,disrupting interaction strength,R212H

# Variants of: B2
# Conditions: with tri39_human TRIM39, Q9HCM9
row,effect of a mutation on the interaction,Variant
1,disrupting interaction strength,E391K

# Variants of: B3
# Conditions: with mtg8_human RUNX1T1, Q06455
row,effect of a mutation on the interaction,Variant
1,with no effect,E368K

# Variants of: B3
# Conditions: with mtg8_human RUNX1T1, Q06455
# Remark: another data set of the same source
row,effect of a mutation on the interaction,Variant
1,with no effect,R503Q

# Variants of: B4
# Conditions: with hm20b_human HMG20B
row,effect of a mutation on the interaction,Variant
1,with no effect,N270K

# Variants of: B4
# Conditions: with hm20b_human HMG20B
# Remark: another data set of the same source
row,effect of a mutation on the interaction,Variant
1,with no effect,D306A
